Tests used:
Type in all cases: in vivo
[1] = system: swine model of myocardial infarction; assay: Myocardial infarct size by Evan's blue/TTC staining, swine model of myocardial infarction (1 h LAD occlusion, 5 d reperfusion); conditions: 5d post-reperfusion, TTC staining; i.v. N2 4.6 mg/kg 5 min or murine 21G6 mAb 2 mg/kg 30 min prior to reperfusion
Protocol: FIG. 2A to 2C are plots showing that N2 peptide and murine 21G6 mAb reduce infarct size in a swine model of myocardial infarction. Swine were subjected to 1 h LAD occlusion and 5 d reperfusion. Prior to reperfusion either saline, N2 (4.6 mg/kg), or murine 21G6 mAb (2 mg/kg) was injected i.v. into the swine. Following 5 d reperfusion, myocardial sections were stained with Evan's blue and TTC. (A) Myocardial infarct size expressed as a percentage of the left ventricle (LV). (B) Percentage of area at risk (AAR) to the LV. (C) Myocardial infarct size expressed as a percentage of the AAR. # represents p<0.05; ## represents p<0.01; ### represents p<0.001. Each symbol represents data from one animal. (Note: Due to poor perfusion with Evan's blue dye in one animal, n=5 in panels B and C). […] Saline-treated animals developed approximately a 20% infarct of the left ventricle as assessed by TTC staining at 5d post-reperfusion as predicted.

[2] = system: porcine model of myocardial infarction; assay: Cardiac function (LVEF, fractional shortening) by echocardiography, porcine model of myocardial infarction; conditions: for increase in EF compared to saline controls at the same time point: 21 days post-reperfusion, 3D TTE, n of 3 per group; for ejection fraction (EF) 21 d post-reperfusion: Quinones method; for ejection fraction (EF) 21 d post-reperfusion / LVEF at baseline: n=3/group; for recovery of cardiac function by fractional shortening (FS) compared to baseline: 21d reperfusion period; for LVEF at baseline: baseline (prior to occlusion procedure)
Description: FIG. 4A to 4C are graphs showing measurements of cardiac function by echocardiography. (A) Non-corrected % LVEF as measured by 2D TTE at 21d post-reperfusion compared to baseline using Quinones method (described below in the Examples section). (B) % LVEF as measured by 3D TTE at 21d post-reperfusion. (C) Fractional shortening as measured by 2D TTE at 21d post-reperfusion compared to baseline. # represents a p<0.05. n=3/group.
To determine the effect of N2 peptide and the 21G6 antibody treatment on cardiac function, echocardiography was employed. Echocardiography is widely accepted for evaluation of cardiac function and is utilized in emergency and operating rooms as well as intensive care departments in most hospitals. Ventricular function as assessed by echocardiography is accompanied by low intra-observer and inter-observer variability and assessment of left ventricular ejection fraction remains the standard of care in clinical practice. In addition, fractional shortening (FS), another measure of left ventricular function, was also calculated based on two-dimensional (2D) measurements at all time points measured at mid-ventricle and is defined as the difference between end-diastolic and end-systolic dimensions divided by end-diastolic dimension.
For animals in which functional data was generated (N2: n of 3, murine 21G6 mAb: n of 3, Saline: n of 3), cardiac imaging was performed via transthoracic echocardiography (TTE) at baseline (prior to occlusion procedure), and then up to 21d following reperfusion. For baseline TTE images were obtained using a high-frequency 2D probe and a Philips iE33 xMATRIX scanner (Andover, Mass.). Prior to sacrifice at 21 days, both 2D and 3D epicardial echocardiography images were obtained after median sternotomy was performed. 3D volumetric data sets were ECG-gated from 4-7 consecutive heartbeats. Additionally, 3D left ventricular volumes and ejection fractions were computed from the epicardial 3D datasets.
Prior to the occlusion procedure, a baseline TTE image was recorded. Afterwards, TTE was performed. Animals were treated in an identical manner as in the 5 day study for the catheterization procedure except that animals were maintained for an additional 16 days. The echocardiographer was blinded to the treatment schedule.
At baseline, saline, N2- and murine 21G6 mAb -treated animals had LVEFs of 53%, 52.6%, and 51%, respectively.
• Intravenous amiodarone infusion (1 mg/min) • Systemic heparinization (˜150 units/kg) • Percutaneously access of LAD via right (R) femoral artery • Occlusion mid-LAD with balloon catheter for 60 min as follows: Using a fluoroscopically guided balloon catheter approach, the left anterior descending coronary artery (LAD) was occluded for 60 min at a defined point distal to the 2nd and 3rd diagonal branches. […]

[3] = system: swine model of myocardial infarction; assay: Serum cardiac troponin-T (cTnT) levels, swine model of myocardial infarction; conditions: N2 4.6 mg/kg or m21G6 2 mg/kg i.v. prior to reperfusion; for reduction of peak serum cTnT levels as compared to saline controls: 8-120 h post-reperfusion; for reduction of cTnT AUC values as compared to saline controls: five day reperfusion period
Protocol: FIGS. 3A and 3B are plots showing the effect of N2 peptide and murine 21G6 mAb (m21G6) on serum cardiac troponin-T (cTnT) levels. Swine were subjected to 1 h LAD occlusion and 5 d reperfusion. Prior to reperfusion either saline, N2 (4.6 mg/kg), or m21G6 (2 mg/kg) was injected i.v. into the swine. Serum samples were taken at several time points as described in text and analyzed for cTnT. (A) Peak cTnT levels. (B) cTnT levels over 5d reperfusion. # represents p<0.05; ## represents p<0.01. Each symbol represents data from one animal. Cardiac troponin-T (cTnT), a well-established marker for cardiac tissue injury, from 8-120 h post-reperfusion, was also analyzed. […] Saline-treated animals developed approximately a 20% infarct of the left ventricle as assessed by TTC staining at 5d post-reperfusion as predicted • Serial EKGs to document ST elevation • Angiogram q20 min to confirm complete occlusion • Lidocaine and defibrillation as needed • Administration of control vs. N2 peptide 5 minutes prior to reperfusion or mAb 21G6 30 minutes before reperfusion • Measure trend in cardiac enzymes (CK, cTnT) • Cardiectomy on Day 5 or Day 21 via cardioplegic arrest • LAD ligation at site of occlusion followed by injection of Evans blue dye via aortic cannula gives estimate of Area At Risk (AAR) • Incubation of transverse sections in TTC for 15 min at 37° C. • Calculate % infarction by computerized planimetry • 21G6 Alexa 568(1 mg/ml) infusion was initiated 2 min prior to reperfusion at ≈1 m1/min for ≈30 min via coronary catheter (results shown in FIG. 1 showing localization of the antibody to the injured left ventricle and not to the uninjured right ventricle) • Heart was perfused with cardioplegic solution 1 h post-ischemia, harvested, sectioned, and punch biopsies taken in the area at risk and in right ventricle • Sections were stained with anti-swine CD31 FITC (Serotec) 1/20 dilution • Using a fluoroscopically guided balloon catheter approach, the left anterior descending coronary artery (LAD) was occluded for 60 min at a defined point distal to the 2nd and 3rd diagonal branches. Saline-treated animals developed approximately a 20% infarct of the left ventricle as assessed by TTC staining at 5d post-reperfusion as predicted.

Row | Molecule | reduction of infarct size as a percentage of the area at risk (AAR) [1] [%] | increase in EF compared to saline controls at the same time point [2] [%] | ejection fraction (EF) 21 d post-reperfusion ([2]; 2D TTE) [%] | recovery of cardiac function by fractional shortening (FS) compared to baseline ([2]; 2D TTE) [%] | LVEF at baseline ([2]; 2D TTE) [%] | reduction of peak serum cTnT levels as compared to saline controls [3] | reduction of cTnT AUC values as compared to saline controls [3] | recovery of cardiac function (LVEF at 21 d relative to baseline) ([2]; 21 d post-reperfusion vs baseline, 2D TTE, saline-treated 74.7%) [%]
1 | LMKNMDPLNDNV [N2 peptide] | 31 | 29 | 52.0 | 98.8 | 52.6 | no effect | no effect | –
2 | murine 21G6 mAb: murine anti-N2 monoclonal antibody from hybridoma ATCC Accession Number PTA-9393 (antibody, V domains shown) VH: QVQLQQPGAELVKPGASVKLSCKASGYTFTSYYMYWVKQRPGQGLEWIGGINPSNGGTNFNEKFKSKATLTVDKSSSTAYMQLSSLTSEDSAVYYCTRWGYDREWFAYWGQGTLVTVSA VL: DIVMTQAAPSVPVTPGESVSISCRSSKSLLHSNGNTYLYWFLQRPGQSPQVLIYRMSNLASGVPDRFSGSGSGTAFTLRISRVEAEDVGVYYCMQHLEYPFTFGSGTKLEIKR | 49 | 21 | 50.4 | 99.4 | 51 | 60% | 47% | 98.8

— patent US20150284453A1, “METHOD OF PROTECTING CARDIAC FUNCTION” (Declmmune Therapeutics, Inc., priority 2012, published 2015)
